# Source: patent publication US20220281976A1 (Alector, published 2022)
# Experiments:
# human CD33 [1] = molecular target: T1, human CD33 (human, UniProt P20138 18-364); experiment: cell-based or functional assay
# [2] = molecular target: T2, mouse CD33 Fc fusion protein (mouse, UniProt Q63994 18-240, limits assumed); experiment: ForteBio BLI or MSD-SET
# T2 construct: also called mCD33-Fc
# T2 sequence: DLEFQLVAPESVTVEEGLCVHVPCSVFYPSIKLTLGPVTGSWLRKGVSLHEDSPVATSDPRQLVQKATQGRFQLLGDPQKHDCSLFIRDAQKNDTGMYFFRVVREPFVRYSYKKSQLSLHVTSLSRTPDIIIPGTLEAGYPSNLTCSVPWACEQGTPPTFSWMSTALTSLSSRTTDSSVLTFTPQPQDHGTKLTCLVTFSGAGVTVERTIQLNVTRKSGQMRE
# human CD33 [3] = molecular target: T1, human CD33; experiment: flow cytometry, human primary T cells;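 also: binding of anti-CD33 antibodies at 10 ug/ml to human primary T cells, 1 h on ice, detected with PE-labelled secondary antibody, read as flow cytometry MFI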
# human CD33 [4] = molecular target: T1, human CD33; experiment: flow cytometry, human primary monocytes; design: reference not given here;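 also: binding of anti-CD33 antibodies at 10 ug/ml to human primary monocytes, 1 h on ice, detected by PE-labelled secondary antibody, flow cytometry readout as mean fluorescence intensity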
# human CD33 [5] = molecular target: T1, human CD33; experiment: flow cytometry, human primary macrophages;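 also: binding of CD33 antibodies at 10 µg/ml to human primary macrophages, 1 h on ice, detected with PE-labelled secondary antibody by flow cytometry, reported as MFI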
# Method: Initial characterization of CD33 antibodies involved determining their ability to bind CD33 expressed on a CHO cell line, on human primary monocytes, human primary macrophages, human primary dendritic cells, and on human primary T cells. Cells were harvested, plated at 10⁶/ml in a 96 well plate, and incubated in 100 ul PBS containing 2% FBS, 2 mM EDTA and 10 ug/ml Mab and Fc blocking reagent for 1 hour in ice. Cells were washed twice and incubated in 100 ul PBS containing 2% FBS, 2 mM EDTA and 5 ug/ml PE-conjugated secondary antibody for 30 minutes on ice. Cells were washed twice in cold PBS and analyze by flow cytometry on a BD FACS Canto. Data analysis and calculation of MFI values was performed with FlowJo (TreeStar) software version 10.0.7.
# human CD33 [6] = molecular target: T1, human CD33; experiment: flow cytometry, human primary dendritic cells;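 also: binding of anti-CD33 antibodies (10 ug/ml, 1 h on ice) to human primary dendritic cells, detected with a PE-labelled secondary antibody, reported as flow cytometry MFI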
# [7] = molecular target: T3, human monomeric His tagged CD33 protein (human, UniProt P20138 18-259); experiment: ForteBio BLI or MSD-SET, IgG, monomeric antigen;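 also: BLI: antibodies captured on AHQ sensors, 100 nM antigen association 5 min, dissociation 5 min, 1:1 fit. MSD-SET: antigen fixed at 50 pM, antibody titrated, quadratic fit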
# T3 construct: also called hCD33-His
# T3 sequence (P20138 18-259 limits assumed): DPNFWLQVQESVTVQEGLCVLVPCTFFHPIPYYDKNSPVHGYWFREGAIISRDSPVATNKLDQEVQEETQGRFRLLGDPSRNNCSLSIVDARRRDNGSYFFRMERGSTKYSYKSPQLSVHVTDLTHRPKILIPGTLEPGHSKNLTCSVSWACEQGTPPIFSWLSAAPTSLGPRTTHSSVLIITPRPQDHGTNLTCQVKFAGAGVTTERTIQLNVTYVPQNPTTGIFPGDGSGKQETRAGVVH
# Method: The binding affinity of each anti-CD33 antibody was determined by measuring their KD by ForteBio or MSD-SET. […] Briefly, ForteBio affinity measurements were performed by loading IgGs on-line onto AHQ sensors. Sensors were equilibrated off-line in assay buffer for 30 min and then monitored on-line for 60 seconds for baseline establishment. Sensors with loaded IgGs were exposed to 100 nM antigen for 5 minutes, then transferred to assay buffer for 5 min for off-rate measurement. Kinetics were analyzed using the 1:1 binding model.
# Solution equilibrium titrations (SET) were performed in PBS+0.1% IgG-Free BSA (PBSF) with antigen held constant at 50 pM and incubated with 3-to 5-fold serial dilutions of antibody starting at 10 nM. Antibodies (20 nM in PBS) were coated onto standard bind MSD-ECL plates overnight at 4° C. or at room temperature for 30 min. Plates were then blocked for 30 min with shaking at 700 rpm, followed by three washes with wash buffer (PBSF+0.05% Tween 20). SET samples were applied and incubated on the plates for 150s with shaking at 700 rpm followed by one wash. Antigen captured on a plate was detected with 250 ng/mL sulfotag-labeled streptavidin in PBSF by incubation on the plate for 3 min. The plates were washed three times with wash buffer and then read on the MSD Sector Imager 2400 instrument using 1× Read Buffer T with surfactant. The percent free antigen was plotted as a function of titrated antibody in Prism and fit to a quadratic equation to extract the KD. To improve throughput, liquid handling robots were used throughout MSD-SET experiments, including SET sample preparation.
# [8] = molecular target: T4, human CD33 Fc fusion protein (human, UniProt P20138 18-259); experiment: RBC adhesion to plate-bound CD33-Fc; antibody 0.5 ug/ml;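 also: Plate-coated CD33-Fc preincubated 1 h with antibody, then red blood cells added for 1 h at room temperature, adherent cells lysed and quantified via peroxidase activity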
# T4 construct: also called hCD33-Fc; human CD33/Fc chimera (R&D Systems)
# T4 sequence (P20138 18-259 limits assumed): as above
# Method: Briefly, 5 ug/ml CD33-Fc was coated overnight at RT in 96 well Immunolon plates, then washed with PBS, blocked for one hour with binding buffer (PBS containing %0.25 BSA 1 mM CaCl₂). CD33 antibodies (0.5 ug/ml or 1.0 ug/ml) or Fabs (25 ug/ml) were bound for one hour at RT with gentle rocking. After removal of unbound antibody, red blood cells were added to each well at a concentration of 3.0×10⁶ cells per ml and incubated at RT for one hour. Unbound RBCs were then carefully washed off 3× with PBS, and water was added to each well for hypotonic lysis of bound RBCs. The plate was transferred to −80° C. for 10 minutes, followed by 37° C. for 15 minutes. Bound RBCs were detected by peroxidase activity, followed by 2N sulfuric acid to stop the reaction.
# [9] = molecular target: T4, human CD33 Fc fusion protein; experiment: RBC adhesion to plate-bound CD33-Fc; antibody 1.0 ug/ml;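 also: red blood cells adhering to plate-coated CD33-Fc after 1 h antibody pretreatment, then 1 h at room temperature, bound cells read as peroxidase activity after lysis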
# T1 sequence (P20138 18-364): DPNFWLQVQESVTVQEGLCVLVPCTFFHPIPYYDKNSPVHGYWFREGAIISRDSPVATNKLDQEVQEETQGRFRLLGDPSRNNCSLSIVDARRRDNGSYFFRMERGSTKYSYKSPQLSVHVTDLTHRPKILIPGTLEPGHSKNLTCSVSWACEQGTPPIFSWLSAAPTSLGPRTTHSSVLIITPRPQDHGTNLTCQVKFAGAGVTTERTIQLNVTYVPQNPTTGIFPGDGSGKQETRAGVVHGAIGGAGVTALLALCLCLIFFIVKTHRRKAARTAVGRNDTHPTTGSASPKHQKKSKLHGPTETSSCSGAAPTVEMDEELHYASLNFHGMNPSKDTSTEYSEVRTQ
Binder,"Percent CD33 Surface Expression, DC % CD33 (human CD33 [1]) [%]","Percent CD33 Surface Expression, Macrophage % CD33 (human CD33 [1]) [%]","Percent CD33 Surface Expression, Monocyte % CD33 (human CD33 [1]) [%]",binding result [2],T cell MFI (human CD33 [3]),Monocyte MFI (human CD33 [4]),Macrophage MFI (human CD33 [5]),DC MFI (human CD33 [6]),Kd [7] [nM],Percent RBC Binding to CD33 [8] [%],Percent RBC Binding to CD33 [9] [%]
"C-70 (antibody, V domains shown, human IgG1) VH: QVQLVESGGGVVQPGRSLRLSCAASGFTFSTYGMHWVRQAPGKGLEWVAVIWYDGSNKYYADSVKGRFTISRDNSKNTLYLQMNSLRAEDTAVYYCARGQHGTSRVDFDYWGQGTLVTVSS VL: not shown",47.5,68.8,53.9,no binding (tested: 100 nM),192,84,652,938,32.2,23,7.46
"C-19 (antibody, V domains shown, human IgG1) VH: QLQLQESGPGLVKPSETLSLTCTVSGGSISSSSYAWGWIRQPPGKGLEWIGSIYYSGSTYYNPSLKSRVTISVDTSKNQFSLKLSSVTAADTAVYYCARVGYTRPYGMDVWGQGTTVTVSS VL: DIQMTQSPSSVSASVGDRVTITCRASQGISSWLAWYQQKPGKAPKLLIYAASSLQSGVPSRFSGSGSGTDFTLTISSLQPEDFATYYCQQINAHPTFGGGTKVEIK",11.6,58.7,28.2,no binding (tested: 100 nM),470,182,887,1700,1.82,19.5,14.3
"C-35 (antibody, V domains shown, human IgG1) VH: QLQLQESGPGLVKPSETLSLTCTVSGGSISSSSYAWGWIRQPPGKGLEWIGNIYYSGSTYYNPSLKSRVTISVDTSKNQFSLKLSSVTAADTAVYYCARAGYRSPSGFDYWGQGTLVTVSS VL: DIQMTQSPSSVSASVGDRVTITCRASQGISSWLAWYQQKPGKAPKLLIYAASNLQSGVPSRFSGSGSGTDFTLTISSLQPEDFATYYCQQGNAHPTFGGGTKVEIK",18.7,51.2,31.9,no binding (tested: 100 nM),186,160,920,1320,4.26,16.6,7.18
"C-13 (antibody, V domains shown, human IgG1) VH: EVQLVESGGGLVQPGGSLRLSCAASGFTFSSYWMSWVRQAPGKGLEWVANIKSDGSEKYYVDSVKGRFTISRDNAKNSLYLQMNSLRAEDTAVYYCARGPSYLASGAFDLWGRGTLVTVSS VL: EIVLTQSPATLSLSPGERATLSCRASQSVSSYLAWYQQKPGQAPRLLIYDASNRATGIPARFSGSGSGTDFTLTISSLEPEDFAVYYCQQAYVVPPRTFGGGTKVEIK",21.8,63.1,48,no binding (tested: 100 nM),205,181,838,1740,9.97,41.3,15.3
"C-36 (antibody, V domains shown, human IgG1) VH: EVQLVESGGGLVQPGGSLRLSCAASGFTFSSYWMSWVRQAPGKGLEWVANIKQDGSEKYYVDSVKGRFTISRDNAKNSLYLQMNSLRAEDTAVYYCARDGQYYPAYGMDVWGQGTTVTVSS VL: EIVMTQSPATLSVSPGERATLSCRASQSVSSNLAWYQQKPGQAPRLLIYGASTRATGIPARFSGSGSGTEFTLTISSLQSEDFAVYYCQQYFDLPTFGGGTKVEIK",21.2,36.3,46.6,no binding (tested: 100 nM),228,144,853,1160,2.35,13.4,16.1
"C-42 (antibody, V domains shown, human IgG1) VH: QLQLQESGPGLVKPSETLSLTCTVSGGSISSSSYYWGWIRQPPGKGLEWIGSIYYSGSTYYNPSLKSRVTISVDTSKNQFSLKLSSVTAADTAVYYCAREPIYRRGMDVWGQGTTVTVSS VL: EIVLTQSPATLSLSPGERATLSCRASQSVSSYLAWYQQKPGQAPRLLIYDASNRATGIPARFSGSGSGTDFTLTISSLEPEDFAVYYCQQFSNYPTFGGGTKVEIK",27.8,52.2,44.9,no binding (tested: 100 nM),269,74,617,1130,12.7,21.2,6.65
"C-66 (antibody, V domains shown, human IgG1) VH: QLQLQESGPGLVKPSETLSLTCTVSGGSISSSSYYWGWIRQPPGKGLEWIGSIYYSGSTYYNPSLKSRVTISVDTSKNQFSLKLSSVTAADTAVYYCAREVGYPYGMDVWGQGTTVTVSS VL: DIQLTQSPSSLSASVGDRVTITCQASQDISNFLNWYQQKPGKAPKLLIYDASNLETGVPSRFSGSGSGTDFTFTISSLQPEDIATYYCQQYSDLPTFGGGTKVEIK",77.4,,59.9,no binding (tested: 100 nM),772,107,729,892,100,44,19.3
"C-73 (antibody, V domains shown, human IgG1) VH: QVQLVESGGGVVQPGRSLRLSCAASGFTFSSYGMHWVRQAPGKGLEWVAVIWYDGSNKYYADSVKGRFTISRDNSKNTLYLQMNSLRAEDTAVYYCARGTNAYGTPRDFDLWGRGTLVTVSS VL: DIQMTQSPSSLSASVGDRVTITCRASQSISSYLNWYQQKPGKAPKLLIYAASSLQSGVPSRFSGSGSGTDFTLTISSLQPEDFATYYCQQLSDTPITFGGGTKVEIK",22.9,55.9,24.9,no binding (tested: 100 nM),210,94,573,1050,23.7,29.8,13.7
"C-18 (antibody, V domains shown, human IgG1) VH: not shown VL: DIQMTQSPSSVSASVGDRVTITCRASQGISSWLAWYQQKPGKAPKLLIYAASSLQSGVPSRFSGSGSGTDFTLTISSLQPEDFATYYCQQANYHPLTFGGGTKVEIK",80,,84.8,no binding (tested: 100 nM),43.4,189,981,1190,16.1,111,119
"C-83 (antibody, V domains shown, human IgG1) VH: not shown VL: DIQLTQSPSSVSASVGDRVTITCRASQGISSWLAWYQQKPGKAPKLLIYAASSLQSGVPSRFSGSGSGTDFTLTISSLQPEDFATYYCQQAYALPPTFGGGTKVEIK",79.6,,87.8,no binding (tested: 100 nM),80.6,646,409,70,59.3,98.7,108
